Experimental data from publication PMC10950897 (2024).

Target: His6-p97 WT (human, UniProt P55072 1-806)
Test: SPR

Sequence of His6-p97 WT (P55072 whole entry): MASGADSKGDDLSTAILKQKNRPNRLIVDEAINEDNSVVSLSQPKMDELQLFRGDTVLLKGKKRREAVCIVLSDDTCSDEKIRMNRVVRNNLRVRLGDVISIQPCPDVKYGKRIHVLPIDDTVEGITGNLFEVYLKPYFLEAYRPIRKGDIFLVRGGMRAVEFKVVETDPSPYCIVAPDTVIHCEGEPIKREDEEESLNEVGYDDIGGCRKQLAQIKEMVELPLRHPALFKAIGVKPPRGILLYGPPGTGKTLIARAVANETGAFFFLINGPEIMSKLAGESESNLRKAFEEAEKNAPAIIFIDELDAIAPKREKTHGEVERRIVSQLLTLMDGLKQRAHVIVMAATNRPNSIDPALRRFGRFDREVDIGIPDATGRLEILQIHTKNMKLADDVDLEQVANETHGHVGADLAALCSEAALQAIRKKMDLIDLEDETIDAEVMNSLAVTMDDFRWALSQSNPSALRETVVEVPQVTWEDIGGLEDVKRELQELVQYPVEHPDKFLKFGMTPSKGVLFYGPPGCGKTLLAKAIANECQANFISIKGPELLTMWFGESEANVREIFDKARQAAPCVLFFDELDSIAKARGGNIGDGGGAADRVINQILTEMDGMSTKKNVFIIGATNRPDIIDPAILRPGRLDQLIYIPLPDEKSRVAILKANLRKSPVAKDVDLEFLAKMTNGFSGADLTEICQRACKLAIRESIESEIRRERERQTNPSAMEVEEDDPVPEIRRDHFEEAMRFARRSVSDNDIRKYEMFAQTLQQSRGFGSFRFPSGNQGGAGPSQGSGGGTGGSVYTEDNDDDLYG

B1: Strep-HA-VCF1 WT (natural protein)
chain: not shown
  Kd: 10.9 nM
